Data as given in patent US20150203577A1 (Chugai, published 2015).

T1: mouse FcγRII (mouse, UniProt P08101 30-210)
T1 construct: also called mFcγRII; mFcgRII
T1 sequence: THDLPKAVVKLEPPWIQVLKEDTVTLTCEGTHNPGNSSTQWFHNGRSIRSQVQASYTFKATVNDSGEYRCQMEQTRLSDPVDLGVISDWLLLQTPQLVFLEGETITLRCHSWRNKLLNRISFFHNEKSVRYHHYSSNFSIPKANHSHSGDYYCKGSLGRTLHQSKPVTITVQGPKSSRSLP

T2: mouse FcγRIII (mouse, UniProt P08508 31-215)
T2 construct: also called mFcγRIII; mFcgRIII
T2 chain: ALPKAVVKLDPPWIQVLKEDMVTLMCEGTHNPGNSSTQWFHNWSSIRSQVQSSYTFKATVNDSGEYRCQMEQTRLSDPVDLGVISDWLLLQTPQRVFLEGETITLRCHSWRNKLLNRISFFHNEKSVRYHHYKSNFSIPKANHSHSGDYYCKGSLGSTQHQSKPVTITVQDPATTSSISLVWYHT


Legend:
mouse FcγRII = biological target: T1, mouse FcγRII; test: SPR (Biacore), antibody captured on Protein L, mFcγR as analyte
mouse FcγRIII = biological target: T2, mouse FcγRIII; test: as above

Kd (mouse FcγRII) [nM] | relative mFcγRII-binding activity (mIgG1 = 1) (mouse FcγRII) [fold] | Kd (mouse FcγRIII) [µM] | relative mFcγRIII-binding activity (mIgG1 = 1) (mouse FcγRIII) [fold] | Binder
179 | 1.37 | 5.5 | 0.07 | H237-MB793/MRAL-k0 (antibody, mouse IgG1, kappa, mouse IgG1 CH variant; copies: 2 + 2) heavy: QVQLQESGPGLVKPSETLSLTCAVSGHSISHDHAWSWVRQPPGEGLEWIGFISYSGITNYNPSLQGRVTISRDNSKNTLYLQMNSLRAEDTAVYYCARSLARTTAMDYWGEGTLVTVSSAKTTPPSVYPLAPGSAAQTNSMVTLGCLVKGYFPEPVTVTWNSGSLSSGVHTFPAVLQSDLYTLSSSVTVPSSTWPSETVTCNVAHPASSTKVDKKIVPRDCGCKPCICQPNEVEIVFIFPPKPKDVLTITLTPKVTCVVVDISKDDPEVQFSWFVDDVEVHTAQTQPREEQFNSTFRSVSELPIMHQDWLNGKEFKCRVNSAAFPAPIEKTISKTKGRPKAPQVYTIPPPKEQMAKDKVSLTCMITDFFPEDITVEWQWNGQPAENYKNTQPIMDTDGSYFVYSKLNVQKSNWEAGNTFTCSVLHEGLHNHHTEKSLSHSPGK light: not shown
63.2 | 3.9 | 4.38 | 0.09 | H237-MB769/MRAL-k0 (antibody, mouse IgG1, kappa, mouse IgG1 CH variant; copies: 2 + 2) heavy: QVQLQESGPGLVKPSETLSLTCAVSGHSISHDHAWSWVRQPPGEGLEWIGFISYSGITNYNPSLQGRVTISRDNSKNTLYLQMNSLRAEDTAVYYCARSLARTTAMDYWGEGTLVTVSSAKTTPPSVYPLAPGSAAQTNSMVTLGCLVKGYFPEPVTVTWNSGSLSSGVHTFPAVLQSDLYTLSSSVTVPSSTWPSETVTCNVAHPASSTKVDKKIVPRDCGCKPCICEPNEVELVFIFPPKPKDVLTITLTPKVTCVVVDISKDDPEVQFSWFVDDVEVHTAQTQPREEQFNSTFRSVSELPIMHQDWLNGKEFKCRVNSAAFPADIEKTISKTKGRPKAPQVYTIPPPKEQMAKDKVSLTCMITDFFPEDITVEWQWNGQPAENYKNTQPIMDTDGSYFVYSKLNVQKSNWEAGNTFTCSVLHEGLHNHHTEKSLSHSPGK light: not shown
34.2 | 7.21 | 2.54 | 0.16 | H237-MB778/MRAL-k0 (antibody, mouse IgG1, kappa, mouse IgG1 CH variant; copies: 2 + 2) heavy: QVQLQESGPGLVKPSETLSLTCAVSGHSISHDHAWSWVRQPPGEGLEWIGFISYSGITNYNPSLQGRVTISRDNSKNTLYLQMNSLRAEDTAVYYCARSLARTTAMDYWGEGTLVTVSSAKTTPPSVYPLAPGSAAQTNSMVTLGCLVKGYFPEPVTVTWNSGSLSSGVHTFPAVLQSDLYTLSSSVTVPSSTWPSETVTCNVAHPASSTKVDKKIVPRDCGCKPCICEPNEVELVFIFPPKPKDVLTITLTPKVTCVVVDISKDDPEVQFSWFVDDVEVHTAQTQPREEQFNSTFRSVSELPIMHQDWLNGKEFKCRVNSAAFPAPIEKTIKKTKGRPKAPQVYTIPPPKEQMAKDKVSLTCMITDFFPEDITVEWQWNGQPAENYKNTQPIMDTDGSYFVYSKLNVQKSNWEAGNTFTCSVLHEGLHNHHTEKSLSHSPGK light: not shown
40.5 | 6.08 | 2.12 | 0.19 | H237-MB781/MRAL-k0 (antibody, mouse IgG1, kappa, mouse IgG1 CH variant; copies: 2 + 2) heavy: QVQLQESGPGLVKPSETLSLTCAVSGHSISHDHAWSWVRQPPGEGLEWIGFISYSGITNYNPSLQGRVTISRDNSKNTLYLQMNSLRAEDTAVYYCARSLARTTAMDYWGEGTLVTVSSAKTTPPSVYPLAPGSAAQTNSMVTLGCLVKGYFPEPVTVTWNSGSLSSGVHTFPAVLQSDLYTLSSSVTVPSSTWPSETVTCNVAHPASSTKVDKKIVPRDCGCKPCICEPNEVELVFIFPPKPKDVLTITLTPKVTCVVVDISKDDPEVQFSWFVDDVEVHTAQTQPREEQFNSTFRSVSELPIMHQDWLNGKEFKCRVNSAAFPKPIEKTISKTKGRPKAPQVYTIPPPKEQMAKDKVSLTCMITDFFPEDITVEWQWNGQPAENYKNTQPIMDTDGSYFVYSKLNVQKSNWEAGNTFTCSVLHEGLHNHHTEKSLSHSPGK light: not shown
60.5 | 4.07 | 3.89 | 0.1 | H237-MB772/MRAL-k0 (antibody, mouse IgG1, kappa, mouse IgG1 CH variant; copies: 2 + 2) heavy: QVQLQESGPGLVKPSETLSLTCAVSGHSISHDHAWSWVRQPPGEGLEWIGFISYSGITNYNPSLQGRVTISRDNSKNTLYLQMNSLRAEDTAVYYCARSLARTTAMDYWGEGTLVTVSSAKTTPPSVYPLAPGSAAQTNSMVTLGCLVKGYFPEPVTVTWNSGSLSSGVHTFPAVLQSDLYTLSSSVTVPSSTWPSETVTCNVAHPASSTKVDKKIVPRDCGCKPCICEPNEVELVFIFPPKPKDVLTITLTPKVTCVVVDISKDDPEVQFSWFVDDVEVHTAQTQPREEQFNSTFRSVSELPIMHQDWLNGKEFKCRVNSAAFPAPINKTISKTKGRPKAPQVYTIPPPKEQMAKDKVSLTCMITDFFPEDITVEWQWNGQPAENYKNTQPIMDTDGSYFVYSKLNVQKSNWEAGNTFTCSVLHEGLHNHHTEKSLSHSPGK light: not shown

The next lines start with the binder.

Binder | Kd (mouse FcγRII) [nM] | relative mFcγRII-binding activity (mIgG1 = 1) (mouse FcγRII) [fold] | Kd (mouse FcγRIII) [µM] | relative mFcγRIII-binding activity (mIgG1 = 1) (mouse FcγRIII) [fold]
H237-MB763/MRAL-k0 (antibody, mouse IgG1, kappa, mouse IgG1 CH variant; copies: 2 + 2) heavy: QVQLQESGPGLVKPSETLSLTCAVSGHSISHDHAWSWVRQPPGEGLEWIGFISYSGITNYNPSLQGRVTISRDNSKNTLYLQMNSLRAEDTAVYYCARSLARTTAMDYWGEGTLVTVSSAKTTPPSVYPLAPGSAAQTNSMVTLGCLVKGYFPEPVTVTWNSGSLSSGVHTFPAVLQSDLYTLSSSVTVPSSTWPSETVTCNVAHPASSTKVDKKIVPRDCGCKPCICEPNEVELVFIFPPKPKDVLTITLTPKVTCVVVDISKDDPEVQFSWFVDDVEVHTAQTQPREEQNNSTFRSVSELPIMHQDWLNGKEFKCRVNSAAFPAPIEKTISKTKGRPKAPQVYTIPPPKEQMAKDKVSLTCMITDFFPEDITVEWQWNGQPAENYKNTQPIMDTDGSYFVYSKLNVQKSNWEAGNTFTCSVLHEGLHNHHTEKSLSHSPGK light: not shown | 61.9 | 3.98 | 3.97 | 0.1
H237-MB768/MRAL-k0 (antibody, mouse IgG1, kappa, mouse IgG1 CH variant; copies: 2 + 2) heavy: QVQLQESGPGLVKPSETLSLTCAVSGHSISHDHAWSWVRQPPGEGLEWIGFISYSGITNYNPSLQGRVTISRDNSKNTLYLQMNSLRAEDTAVYYCARSLARTTAMDYWGEGTLVTVSSAKTTPPSVYPLAPGSAAQTNSMVTLGCLVKGYFPEPVTVTWNSGSLSSGVHTFPAVLQSDLYTLSSSVTVPSSTWPSETVTCNVAHPASSTKVDKKIVPRDCGCKPCICEPNEVELVFIFPPKPKDVLTITLTPKVTCVVVDISKDDPEVQFSWFVDDVEVHTAQTQPREEQFNSTFRSVSELPIMHQDWLNGKEFKCRVNSAAFPQPIEKTISKTKGRPKAPQVYTIPPPKEQMAKDKVSLTCMITDFFPEDITVEWQWNGQPAENYKNTQPIMDTDGSYFVYSKLNVQKSNWEAGNTFTCSVLHEGLHNHHTEKSLSHSPGK light: not shown | 38.9 | 6.34 | 2.03 | 0.2
H237-MB764/MRAL-k0 (antibody, mouse IgG1, kappa, mouse IgG1 CH variant; copies: 2 + 2) heavy: QVQLQESGPGLVKPSETLSLTCAVSGHSISHDHAWSWVRQPPGEGLEWIGFISYSGITNYNPSLQGRVTISRDNSKNTLYLQMNSLRAEDTAVYYCARSLARTTAMDYWGEGTLVTVSSAKTTPPSVYPLAPGSAAQTNSMVTLGCLVKGYFPEPVTVTWNSGSLSSGVHTFPAVLQSDLYTLSSSVTVPSSTWPSETVTCNVAHPASSTKVDKKIVPRDCGCKPCICEPNEVELVFIFPPKPKDVLTITLTPKVTCVVVDISKDDPEVQFSWFVDDVEVHTAQTQPREEQTNSTFRSVSELPIMHQDWLNGKEFKCRVNSAAFPAPIEKTISKTKGRPKAPQVYTIPPPKEQMAKDKVSLTCMITDFFPEDITVEWQWNGQPAENYKNTQPIMDTDGSYFVYSKLNVQKSNWEAGNTFTCSVLHEGLHNHHTEKSLSHSPGK light: not shown | 84.9 | 2.9 | 5.15 | 0.08
H237-MB767/MRAL-k0 (antibody, mouse IgG1, kappa, mouse IgG1 CH variant; copies: 2 + 2) heavy: QVQLQESGPGLVKPSETLSLTCAVSGHSISHDHAWSWVRQPPGEGLEWIGFISYSGITNYNPSLQGRVTISRDNSKNTLYLQMNSLRAEDTAVYYCARSLARTTAMDYWGEGTLVTVSSAKTTPPSVYPLAPGSAAQTNSMVTLGCLVKGYFPEPVTVTWNSGSLSSGVHTFPAVLQSDLYTLSSSVTVPSSTWPSETVTCNVAHPASSTKVDKKIVPRDCGCKPCICEPNEVELVFIFPPKPKDVLTITLTPKVTCVVVDISKDDPEVQFSWFVDDVEVHTAQTQPREEQFNSTFRSVSELPIMHQDWLNGKEFKCRVNSAAFPGPIEKTISKTKGRPKAPQVYTIPPPKEQMAKDKVSLTCMITDFFPEDITVEWQWNGQPAENYKNTQPIMDTDGSYFVYSKLNVQKSNWEAGNTFTCSVLHEGLHNHHTEKSLSHSPGK light: not shown | 117 | 2.1 | 8.79 | 0.04
H237-MB765/MRAL-k0 (antibody, mouse IgG1, kappa, mouse IgG1 CH variant; copies: 2 + 2) heavy: QVQLQESGPGLVKPSETLSLTCAVSGHSISHDHAWSWVRQPPGEGLEWIGFISYSGITNYNPSLQGRVTISRDNSKNTLYLQMNSLRAEDTAVYYCARSLARTTAMDYWGEGTLVTVSSAKTTPPSVYPLAPGSAAQTNSMVTLGCLVKGYFPEPVTVTWNSGSLSSGVHTFPAVLQSDLYTLSSSVTVPSSTWPSETVTCNVAHPASSTKVDKKIVPRDCGCKPCICEPNEVELVFIFPPKPKDVLTITLTPKVTCVVVDISKDDPEVQFSWFVDDVEVHTAQTQPREEQFNSTFRSVSELPIMHQDWLNGKEFKCRVLSAAFPAPIEKTISKTKGRPKAPQVYTIPPPKEQMAKDKVSLTCMITDFFPEDITVEWQWNGQPAENYKNTQPIMDTDGSYFVYSKLNVQKSNWEAGNTFTCSVLHEGLHNHHTEKSLSHSPGK light: not shown | 39.6 | 6.23 | 2.56 | 0.15
